Assay results taken from paper PMC8353492.

Assays:
[1] = molecular target: NOX2 phox complex (rhodamine-tagged cytochrome b558 (gp91 plus p22), p40, p47 and p67), cell-free system (UniProt P04839); assay: rhodamine fluorescence intensity over time; fully preactivated (GTP-bound) Rac added to the cell-free NOX2 phox complex with rhodamine-tagged cytochrome b558 (subunits 100 nM), SDS 100 μM; 10 mM MgCl2, 50 mM KCl, 1 mM NaCl, 0.2 mM NADPH, 10 mM GTP, 10 mM Mops pH 7.4
[2] = molecular target: NOX2 phox complex (rhodamine-tagged cytochrome b558 (gp91 plus p22), p40, p47 and p67), cell-free system (UniProt P04839); assay: rhodamine fluorescence intensity over time; initially inactive (GDP-bound) Rac added to the cell-free NOX2 phox complex with rhodamine-tagged cytochrome b558 after a fraction of preactivated wt Rac (∼2 mol %); SDS 100 μM; assay buffer with NADPH and GTP, pH 7.4; also with H2O2 (unaffected) or ascorbic acid 10 mM (enhanced)

Row | fold slower binding than wt Rac [1] | fold slower rate of binding than wt Rac [2] | Substance
1 | 1.5 fold | 1.5 fold | K132E Rac (from UniProt P63000 1-192) (natural protein)
2 | 1.5 fold | 1.5 fold | L134R Rac (from UniProt P63000 1-192) (natural protein)
